From patent CN111978395A (UNIV SICHUAN, dated 2020)

Key:
SARS-CoV2病毒的囊膜蛋白SPIKE = SARS-CoV2病毒的囊膜蛋白SPIKE (SARS-CoV2, UniProt P0DTC2 14-1273); test: cell-based or functional assay
[1] = molecular target: T1, SARS-CoV2病毒表面SPIKE蛋白的RBD结构域 (SARS-CoV2, UniProt P0DTC2 319-541); test: Biacore (SPR), recombinant antibody against RBD
[2] = molecular target: T1, SARS-CoV2病毒表面SPIKE蛋白的RBD结构域; test: Biacore blocking experiment, antibody of the hybridoma clone

B1: DK5 (antibody, V domains shown)
VH: QVQLQQPGAELVKPGASVKMSCKASGYTFTSYSMHWVKQTPGQGLEWIGAIYPGNGDTSYNQKFKGKATLTADKSSSTAYMQLSSLTSEDSAVYYCARDYHYDGYYVTLDYWGQGTTLTVSS
VL: DIQMTQSPSSLSASLGERVSLTCRASQEISGYLSWLQQKPDGTIKRLIYAASTLDSGVPKRFSGSRSGSDYSLTISSLESEDFADYYCLQYASYPWTFGGGTKLEIK
SARS-CoV2病毒的囊膜蛋白SPIKE
  EC50(nM), 阻断假病毒感染 (GFP阳性细胞): 0.1 nM
  EC50(μg/mL), 阻断假病毒感染 (GFP阳性细胞): 0.015 µg/mL
[1]
  Kd: < 1 nM
[2]
  阻断率: ≥ 60%

B2: DK7 (antibody, V domains shown)
VH: QVQLQQPGAELVKPGASVKMSCKASGYTFTSYSMHWVKQTPGQGLEWIGAIYPGNGDTSYNQKFKGKATLTADKSSSTAYMQLSSLTSEDSAVYYCARDYHYDGYYVTLDYWGQGTTLTVSS
VL: DIQMTQSPSSLSASLGERVSLTCRASQEISGYLSWLQQKPDGTIKRLIYAASTLDSGVPKRFSGSRSGSDYSLTISSLESEDFADYYCLQYASYPWTFGGGTKLEIK
SARS-CoV2病毒的囊膜蛋白SPIKE
  EC50(nM), 阻断假病毒感染 (GFP阳性细胞): 0.47 nM
  EC50(μg/mL), 阻断假病毒感染 (GFP阳性细胞): 0.071 µg/mL

B3: DK10 (antibody, V domains shown)
VH: QVQLQQPGAELVKPGASVKMSCKASGYTFTSYSMHWVKQTPGQGLEWIGAIYPGNGDTSYTQKFKGKATLTADKSSSTAYMQLNSLTSEDSAVYYCARDYHYDGYYVTLDYWGQGTTLTVSS
VL: DIQMTQSPSSLSASLGERVSLTCRASQEISGYLSWLQQKPDGTIKRLIYAASTLDSGVPKRFSGSRSGSDYSLTISSLESEDFADYYCLQYASYPWTFGGGTKLEIK
SARS-CoV2病毒的囊膜蛋白SPIKE
  EC50(nM), 阻断假病毒感染 (GFP阳性细胞): 1.63 nM
  EC50(μg/mL), 阻断假病毒感染 (GFP阳性细胞): 0.245 µg/mL

B4: DK6 (antibody, V domains shown)
VH: QVQLQQPGTELVKPGASVKMSCKASGYTFTSYSIHWVKQTPGQGLEWIGAIYPGNGDTSYNQKFKGKATLTADKSSSTAYMQLSSLTSEDSAVYYCARDYHYDGYYVTLDYWGQGTTLTVSS
VL: DIQMTQSPSSLSASLGERVSLTCRASQEISGYLSWLQQKPDGTIKRLIYAASTLDSGVPKRFSGSRSGSDYSLTISSLESEDFADYYCLQYASYPWTFGGGTKLEIK
SARS-CoV2病毒的囊膜蛋白SPIKE
  EC50(nM), 阻断假病毒感染 (GFP阳性细胞): 0.47 nM
  EC50(μg/mL), 阻断假病毒感染 (GFP阳性细胞): 0.071 µg/mL
[1]
  Kd: < 1 nM
[2]
  阻断率: ≥ 60%

B5: DK2 (antibody, V domains shown)
VH: QVQLQQPGAELVKPGASVKMSCKASGYTFISYSMHWVKQTPGQGLEWIGAIYPGNGDTSYTQKFKGKATLTADKSSTTAYMQLSSLTSEDSAVYYCARDHGNYVLDYWGQGTTLTVSS
VL: DIVMTQSHKFMSTSVGDRVSITCKASQDVGTAVAWYQQKPGQSPKLLIYWASTRHTGVPDRFTGSGSGTDFTLTISNVQSEDLADYFCQQYSSYPWTFGGGTKLEIK
SARS-CoV2病毒的囊膜蛋白SPIKE
  EC50(nM), 阻断假病毒感染 (GFP阳性细胞): 0.083 nM
  EC50(μg/mL), 阻断假病毒感染 (GFP阳性细胞): 0.012 µg/mL
[1]
  Kd: < 1 nM
[2]
  阻断率: ≥ 60%

B6: DK11 (antibody, V domains shown)
VH: EVQLQQSGPELVKPGASVKISCKASGYSFTGYFMNWVKQSHGKSLEWIGRINPYNGDTFYNQKFKGKATLTVDKSSSTAHMELLSLTSEDSAVYYCGRGYLDYWGQGTTLTVSS
VL: DIVMTQSHKFMSTSVGDRVSITCKASQDVSTAVAWYQQKPGQSPKLLIFSASYRYTGVPDRFTGSGSGTDFTFTISSVQAEDLAVYYCQEHYSNPYTFGGGTKLEIK
SARS-CoV2病毒的囊膜蛋白SPIKE
  EC50(nM), 阻断假病毒感染 (GFP阳性细胞): 0.34 nM
  EC50(μg/mL), 阻断假病毒感染 (GFP阳性细胞): 0.051 µg/mL

B7: DK15 (antibody, V domains shown)
VH: QVQLQQPGAEFVMPGASVKMSCKASGYTFTDYWMHWVKQRPGQGLEWIGAIDTSDTYTRYNQKFKDKATLTVDESSSTAYMQLSSLTSEDSAVYYCARFLYYYGNPTFDYWGQGTTLTVSS
VL: DVQITQSPSYLAASPGETITINCRASKSISKYLAWYQEKPGKTNKLLIYSGSTLQSGIPSRFSGSGSGTDFTLTISSLEPEDFAMYYCQQHNEYPLTFGAGTKLELK
SARS-CoV2病毒的囊膜蛋白SPIKE
  EC50(nM), 阻断假病毒感染 (GFP阳性细胞): 1.27 nM
  EC50(μg/mL), 阻断假病毒感染 (GFP阳性细胞): 0.191 µg/mL

B8: DK14 (antibody, V domains shown)
VH: QVQLQQPGAELVKPGASVKLSCKASGYTFISYWMHWVKQRPGQGLEWIGEIDPSDSYTNSNQKFKGKATLTVDKSSSTAYMQLSSLTSEDSAVYYCARSELWAMDYWGQGTSVTVSS
VL: DIVMTQAAFSNPVTLGTSASISCRSSKSLLHSHGITYLYWYLQKPGQSPQLLIYQMSNLASGVPDRFSSSGSGTDFTLRISRVEAEDVGVYYCAQNLELPWTFGGGTKLEIR
SARS-CoV2病毒的囊膜蛋白SPIKE
  EC50(nM), 阻断假病毒感染 (GFP阳性细胞): 0.41 nM
  EC50(μg/mL), 阻断假病毒感染 (GFP阳性细胞): 0.062 µg/mL
